According to patent US20220162308A1 (Novartis, published 2022):

Tests used:
2249 = target: T1, 2249 (Homo sapiens, UniProt P09326); test: ELISA: 1:10 diluted HEK293T supernatant of the CD48-mouse IgG construct; antibody at 25, 250 and 500 ng/mL; detection with goat anti-mouse IgG (H+L) HRP; Mean OD450-570
T1 chain: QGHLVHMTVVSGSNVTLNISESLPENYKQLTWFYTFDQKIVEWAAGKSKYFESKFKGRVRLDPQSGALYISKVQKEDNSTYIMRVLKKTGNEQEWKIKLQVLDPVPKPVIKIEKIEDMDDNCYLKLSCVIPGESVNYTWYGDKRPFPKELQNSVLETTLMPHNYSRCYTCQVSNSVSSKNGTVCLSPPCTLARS
Procedure: (§1) Applying the 3D structure models of the CD48 protein, three exposed loops of the protein were selected and changed by site directed mutagenesis utilizing PCR. Antibody binding epitopes were determined by ELISA. […] The template construct, hCD48EC:mouse-Ig originates from the expression plasmid generated to express the human CD48-mouse IgG1 fusion protein for immunization amplified from the commercial vector “Trueclone, CD48 (untagged)-Human CD48 molecule” (Origene, NM_001778.2). Primer for the site directed mutagenesis were synthesized by Microsynth (Switzerland).

Construct #2248 = target: T2, Construct #2248 (human; mouse, UniProt P09326 27-220, limits assumed); test: as above
T2 construct: also called hCD48EC:mouse-Ig with ENYKQ modified into GSSKQ
T2 chain: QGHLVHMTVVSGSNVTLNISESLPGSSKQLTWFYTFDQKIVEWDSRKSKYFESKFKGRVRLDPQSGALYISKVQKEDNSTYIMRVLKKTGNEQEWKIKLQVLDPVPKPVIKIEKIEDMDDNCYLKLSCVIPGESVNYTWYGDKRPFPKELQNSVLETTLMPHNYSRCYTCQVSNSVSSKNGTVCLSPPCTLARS
Procedure: as §1

Construct #2250 = target: T3, Construct #2250 (human; mouse, UniProt P09326 27-220, limits assumed); test: as above
T3 construct: also called hCD48EC:mouse-Ig with KKTGNE modified into KKDASG
T3 chain: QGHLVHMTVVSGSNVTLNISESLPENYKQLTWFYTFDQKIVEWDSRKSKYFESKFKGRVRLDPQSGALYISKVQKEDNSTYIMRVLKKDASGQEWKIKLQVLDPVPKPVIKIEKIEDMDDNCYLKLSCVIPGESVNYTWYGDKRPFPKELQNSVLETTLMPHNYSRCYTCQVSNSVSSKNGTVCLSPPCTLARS
Procedure: as §1

[1] = target: T4, Non-mutated CD48-mouse IgG fusion construct (human; mouse, UniProt P09326 27-220, limits assumed); test: as above
T4 construct: Used as HEK293T culture supernatant in the ELISA; also called hCD48EC:mouse-Ig; human CD48-mouse IgG1 fusion protein
T4 sequence: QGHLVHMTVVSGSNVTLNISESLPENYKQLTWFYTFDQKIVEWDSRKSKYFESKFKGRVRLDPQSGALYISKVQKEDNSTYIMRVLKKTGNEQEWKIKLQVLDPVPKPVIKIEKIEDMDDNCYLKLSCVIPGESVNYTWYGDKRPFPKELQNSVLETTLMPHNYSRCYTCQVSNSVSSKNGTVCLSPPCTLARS
Procedure: as §1

Human CD48 on cells = target: T5, Human CD48 on cells (human, UniProt P09326 27-220); test: cell-based or functional assay
T5 sequence: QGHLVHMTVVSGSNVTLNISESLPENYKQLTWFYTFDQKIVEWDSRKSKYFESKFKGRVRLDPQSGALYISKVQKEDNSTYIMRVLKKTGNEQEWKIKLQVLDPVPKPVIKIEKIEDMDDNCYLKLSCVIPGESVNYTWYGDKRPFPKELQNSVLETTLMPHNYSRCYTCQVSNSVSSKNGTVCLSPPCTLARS

B1: humanized CD48A (antibody, human IgG1, kappa)
heavy: not shown
light: EIVLTQSPDFQSVTPKEKVTITCRASQSIGSNIHWYQQKPDQSPKLLIKYTSESISGVPSRFSGSGSGTDFTLTINSLEAEDAATYYCQQSNSWPLTFGGGTKVEIKRTVAAPSVFIFPPSDEQLKSGTASVVCLLNNFYPREAKVQWKVDNALQSGNSQESVTEQDSKDSTYSLSSTLTLSKADYEKHKVYACEVTHQGLSSPVTKSFNRGEC
notes: also called humanized MEM102 antibody; anti-CD48A
EC50 (read off the curve) 2249: ~0.03 mg/L | binding result (Construct #2248): no binding (tested: 500 ng/mL) | EC50 (read off the curve) (Construct #2250): ~0.02 mg/L | EC50 (read off the curve) [1]: ~0.02 mg/L | IC50 (nM), cell proliferation/survival (CellTiter-Glo), KMS-21-BM, with anti-human Fc-VC-MMAE (Human CD48 on cells): 0.016 nM | IC50 (nM), cell proliferation/survival (CellTiter-Glo), KMS-27, with anti-human Fc-VC-MMAE (Human CD48 on cells): 0.001 nM | IC50 (nM), cell proliferation/survival (CellTiter-Glo), NCI-H929, with anti-human Fc-VC-MMAE (Human CD48 on cells): 0.007 nM | Span (Amax), KMS-21-BM, with anti-human Fc-VC-MMAE (Human CD48 on cells): 92 | Span (Amax), KMS-27, with anti-human Fc-VC-MMAE (Human CD48 on cells): 93.4 | Span (Amax), NCI-H929, with anti-human Fc-VC-MMAE (Human CD48 on cells): 100
